Test results: paper PMC5003812 (Cell Reports, 2016)

Molecular target: recombinant human FOXO3a (human, UniProt O43524 1-673)
Assay: pull-down

Chain of recombinant human FOXO3a (O43524 whole entry): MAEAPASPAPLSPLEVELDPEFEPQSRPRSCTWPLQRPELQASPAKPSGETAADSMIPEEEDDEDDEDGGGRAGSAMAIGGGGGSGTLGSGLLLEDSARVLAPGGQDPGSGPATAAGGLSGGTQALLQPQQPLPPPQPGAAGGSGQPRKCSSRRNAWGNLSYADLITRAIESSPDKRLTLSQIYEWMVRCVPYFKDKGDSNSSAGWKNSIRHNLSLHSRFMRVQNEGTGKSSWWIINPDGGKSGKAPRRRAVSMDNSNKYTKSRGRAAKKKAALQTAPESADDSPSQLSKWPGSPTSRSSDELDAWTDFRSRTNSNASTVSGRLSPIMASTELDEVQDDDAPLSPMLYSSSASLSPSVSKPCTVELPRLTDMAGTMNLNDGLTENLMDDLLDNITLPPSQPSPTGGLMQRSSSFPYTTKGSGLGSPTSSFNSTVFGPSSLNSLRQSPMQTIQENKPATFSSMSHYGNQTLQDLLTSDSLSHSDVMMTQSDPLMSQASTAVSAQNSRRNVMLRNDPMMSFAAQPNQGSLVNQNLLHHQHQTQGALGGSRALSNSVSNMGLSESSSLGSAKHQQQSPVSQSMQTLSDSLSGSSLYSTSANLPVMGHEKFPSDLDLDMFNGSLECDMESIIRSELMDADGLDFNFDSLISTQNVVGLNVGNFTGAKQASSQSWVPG

binding result: binds
B1: GST-ATM fragment spanning 2,842–3,056 aa (domain or fragment)
chain: PAIWFEKRLAYTRSVATSSIVGYILGLGDRHVQNILINEQSAELVHIDLGVAFEQGKILPTPETVPFRLTRDIVDGMGITGVEGVFRRCCEKTMEVMRNSQETLLTIVEVLLYDPLFDWTMNPLKALYLQQRPEDETELHPTLNADDQECKRNLSDIDQSFNKVAERVLMRLQEKLKGVEEGTVLSVGGQVNLLIQQAIDPKNLSRLFPGWKAWV
